In patent publication US20240132593A1 (published 2024) one finds EC50 data, which are given here for seven molecules.

“And” between values parts separate entries of the source, which are not always exact repeats. Equal entries are not always repeated. Where two headings read alike, the source gives them in different places.

For assay [1], the target named is T1, FcRn receptor (biotinylated, AlphaLisa binding kit Perkin Elmer #AL3095C) (UniProt P55899 24-297; P61769 21-119, biotinylated (sites not given)). Kind of assay: AlphaLISA FcRn binding assay. Background: In Alpha technology, singlet oxygen from a donor bead excites a nearby acceptor bead.
In assay [2] the target is T2, immunoglobulin gamma Fc receptor 1 (FcγR1) (biotinylated, AlphaLisa binding kit Perkin Elmer #AL3081C) (UniProt P12314 16-288, biotinylated (sites not given)).
T2 chain: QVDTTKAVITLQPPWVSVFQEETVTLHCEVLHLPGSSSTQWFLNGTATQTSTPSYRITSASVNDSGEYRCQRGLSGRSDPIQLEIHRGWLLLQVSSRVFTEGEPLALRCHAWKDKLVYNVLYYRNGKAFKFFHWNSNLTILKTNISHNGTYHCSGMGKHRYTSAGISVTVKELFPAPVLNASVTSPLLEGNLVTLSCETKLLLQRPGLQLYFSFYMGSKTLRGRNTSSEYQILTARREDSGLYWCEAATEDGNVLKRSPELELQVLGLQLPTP
Kind of assay: AlphaLISA FcγR1 binding assay.

In the next assay the target is FCGR2A/CD32A (167H). Briefly: AlphaLISA FcγR2a binding assay.
For the next assay, the target named is FcRn (UniProt P55899 24-297; P61769 21-119, biotinylated (sites not given)). Briefly: AlphaLISA FcRn binding assay.
Another assay deals with T3, FCGR1/CD64 (UniProt P12314 16-288, biotinylated (sites not given)).
T3 chain: T2 chain
Briefly: AlphaLISA FcγR1 binding assay.

Another assay addresses FCGR2A/CD32A (167R). Kind of assay: AlphaLISA FcγR2a binding assay.
For assay [3], the target named is T2, immunoglobulin gamma Fc receptor 1 …. Briefly: AlphaLISA FcγR1 binding assay.
The target in assay [4] is T1, FcRn receptor (biotinylated, AlphaLisa …). Kind of assay: AlphaLISA FcRn binding assay. This is another data set of the same source.

B1: Ab No. 420.4(YTE) (antibody)
chain 1: MGWSCIILFLVATATGVHSQLQLQESGPGLVKPSETLSLTCIVSGGSISSSGYYWGWIRQPPGKGLEWIGSIFYSGNTHYNPSLKSRVTIPVDTSKNQFSLKLSSVTAADSAVYYCARRDILTGPFDYWGQGTLVTVSSAASTKGPSVFPLAPCSRSTSESTAALGCLVKDYFPEPVTVSWNSGALTSGVHTFPAVLQSSGLYSLSSVVTVPSSSLGTKTYTCNVDHKPSNTKVDKRVESKYGPPCPSCPAPEFLGGPSVFLFPPKPKDTLYITREPEVTCVVVDVSQEDPEVQFNWYVDGVEVHNAKTKPREEQFNSTYRVVSVLTVLHQDWLNGKEYKCKVSNKGLPSSIEKTISKAKGQPREPQVYTLPPSQEEMTKNQVSLTCLVKGFYPSDIAVEWESNGQPENNYKTTPPVLDSDGSFFLYSRLTVDKSRWQEGNVFSCSVMHEALHNHYTQKSLSLSLGK
chain 2: not shown
For B1, the EC50 in assay [1] was 0.486 nM and 0.0729 µg/mL.

B2: Ab No. 420.4 (YTE) (antibody)
chain 1: B1 chain 1
chain 2: not shown
On to B2, for which the EC50 in assay [2] was 139 nM and 20.8 µg/mL.

B3: VSTB174 (WT) (antibody)
chain 1: not shown
chain 2: DIQMTQSPSSLSASVGDRVTITCRASQSIDTRLNWYQQKPGKAPKLLIYSASSLQSGVPSRFSGSGSGTDFTLTISSLQPEDFATYYCQQSAYNPITFGQGTKVEIKRTVAAPSVFIFPPSDEQLKSGTASVVCLLNNFYPREAKVQWKVDNALQSGNSQESVTEQDSKDSTYSLSSTLTLSKADYEKHKVYACEVTHQGLSSPVTKSFNRGEC
As for B3, the concentration giving a half-maximal response (EC50) in the assay with FCGR2A/CD32A (167H) is 2.1 µg/mL; with FcRn, 1.5 µg/mL; with FCGR1/CD64 it was 3.6 nM and 0.534 µg/mL; with FCGR2A/CD32A (167R), 4.6 µg/mL.

B4: Ab No. 150.1 (YTE) (antibody)
light: not shown
heavy: QVQLQESGPGLVKPSETLSLTCTVSGGSISSYYWSWIRQPPGKGLEWIGYIYYSGSTNYNPSLKSRVTISVDTSKSQFSLKLSSVTAADTAVYYCARDIPAFAFDIWGQGTMVIVSSASTKGPSVFPLAPSSKSTSGGTAALGCLVKDYFPEPVTVSWNSGALTSGVHTFPAVLQSSGLYSLSSVVTVPSSSLGTQTYICNVNHKPSNTKVDKKVEPKSCDKTHTCPPCPAPELLGGPSVFLFPPKPKDTLYITREPEVTCVVVDVSHEDPEVKFNWYVDGVEVHNAKTKPREEQYNSTYRVVSVLTVLHQDWLNGKEYKCKVSNKALPAPIEKTISKAKGQPREPQVYTLPPSRDELTKNQVSLTCLVKGFYPSDIAVEWESNGQPENNYKTTPPVLDSDGSFFLYSKLTVDKSRWQQGNVFSCSVMHEALHNHYTQKSLSLSPGK
On to B4, for which the EC50 with FCGR2A/CD32A (167H) was 18.3 µg/mL and 122 nM; in the assay with FCGR2A/CD32A (167R) it was 275 nM and 41.3 µg/mL.

B5: Antibody No. 150.1 (antibody)
light: not shown
heavy: B4 heavy
In the case of B5, the EC50 was 5.8 nM and 0.868 µg/mL in assay [3]; 0.142 µg/mL in assay [4].

B6: Ab No. 420.1 (YTE) (antibody)
chain 1: MGWSCIILFLVATATGVHSQLQLQESGPGLVKPSETLSLTCIVSGGSISSSGYYWGWIRQPPGKGLEWIGSIFYSGNTHYNPSLKSRVTIPVDTSKNQFSLKLSSVTAADSAVYYCARRDILTGPFDYWGQGTLVTVSSAASTKGPSVFPLAPSSKSTSGGTAALGCLVKDYFPEPVTVSWNSGALTSGVHTFPAVLQSSGLYSLSSVVTVPSSSLGTQTYICNVNHKPSNTKVDKKVEPKSCDKTHTCPPCPAPELLGGPSVFLFPPKPKDTLYITREPEVTCVVVDVSHEDPEVKFNWYVDGVEVHNAKTKPREEQYNSTYRVVSVLTVLHQDWLNGKEYKCKVSNKALPAPIEKTISKAKGQPREPQVYTLPPSRDELTKNQVSLTCLVKGFYPSDIAVEWESNGQPENNYKTTPPVLDSDGSFFLYSKLTVDKSRWQQGNVFSCSVMHEALHNHYTQKSLSLSPGK
chain 2: not shown
Consider B6, for which the EC50 in assay [2] was 14.7 nM and 2.2 µg/mL.

B7: Ab No. 420.1(YTE) (antibody)
chain 1: B6 chain 1
chain 2: not shown
For the molecule B7, the 50% effective concentration (EC50) in assay [1] is 0.376 nM and 0.0565 µg/mL.

Broadly, the EC50 is the concentration at which the effect is half-maximal.
